Assay results taken from patent US20210054067A1 (ALETHIA BIOTHERAPEUTICS, published 2021).
Numbering of substitutions follows the chain as printed. One block for each binder: values may come before it.

Assays:
[1] = biological target: T1, recombinant human KAAG1 (purified protein) (human, UniProt Q9UBP8 1-84, limits assumed); assay: SPR as above; KD relative to LcHc
T1 construct: also called gel filtration purified KAAG1
T1 sequence: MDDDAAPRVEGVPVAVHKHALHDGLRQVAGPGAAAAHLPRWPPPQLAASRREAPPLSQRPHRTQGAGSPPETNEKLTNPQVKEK
Method: Immediately after the activation, a 13 μg/mL solution of anti-human IgG Fc fragment specific in 10 mM NaOAc pH 4.5 was injected in the analyte direction at a flow rate of 25 μL/min until approximately 8000 resonance units (RUs) were immobilized. Remaining active groups were quenched by a 300 s injection of 1M ethanolamine at 30 μL/min in the analyte direction, and this also ensures mock-activated interspots are created for blank referencing. The screening of the 3A4 variants for binding to KAAG1 occurred in two steps: an indirect capture of 3A4 variants from cell supernatant onto the anti-human IgG Fc fragment specific surface in the ligand direction (vertical) followed by a KAAG1 injection in the analyte direction. Firstly, one buffer injection for 30 s at 100 uL/min in the ligand direction was used to stabilize the baseline. […] Four to five 3A4 variants along with wild-type 3A4 were simultaneously injected in individual ligand channels for 240 s at flow 25 μL/min. […] The first ligand channel was left empty to use as a blank control if required. This 3A4 capture step was immediately followed by two buffer injections in the analyte direction to stabilize the baseline, and then the gel filtration purified KAAG1 was injected. For a typical screen, five KAAG1 concentrations (8, 2.66, 0.89, 0.29, and 0.098 nM) and buffer control were simultaneously injected in individual analyte channels at 50 μL/min for 120 s with a 600 s dissociation phase, resulting in a set of binding sensorgrams with a buffer reference for each of the captured 3A4 variants. The anti-human IgG Fc fragment specific—3A4 complexes were regenerated by a 18 s pulse of 0.85% phosphoric acid for 18 s at 100 μL/min to prepare the anti-human IgG Fc fragment specific surface for the next injection cycle.
(§1) Sensorgrams were aligned and double-referenced using the buffer blank injection and interspots, and the resulting sensorgrams were analyzed using ProteOn Manager software v3.0.

[2] = biological target: T1, recombinant human KAAG1 (purified …); assay: SPR (ProteOn XPR36)
Method: (§2) Remaining active groups were quenched by a 300 s injection of 1M ethanolamine at 30 μL/min in the analyte direction, and this also ensures mock-activated interspots are created for blank referencing. The screening of the 3A4 variants for binding to KAAG1 occurred in two steps: an indirect capture of 3A4 variants from cell supernatant onto the anti-human IgG Fc fragment specific surface in the ligand direction (vertical) followed by a KAAG1 injection in the analyte direction. Firstly, one buffer injection for 30 s at 100 uL/min in the ligand direction was used to stabilize the baseline. […] Four to five 3A4 variants along with wild-type 3A4 were simultaneously injected in individual ligand channels for 240 s at flow 25 μL/min. […] The first ligand channel was left empty to use as a blank control if required. […]
Sensorgrams were aligned and double-referenced using the buffer blank injection and interspots, and the resulting sensorgrams were analyzed using ProteOn Manager software v3.0. The kinetic and affinity values were determined by fitting the referenced sensorgrams to the 1:1 Langmuir binding model using local Rₘₐₓ, and affinity constants (KD M) were derived from the resulting rate constants (kd s⁻¹/kₐ M⁻¹s⁻¹).

[3] = biological target: T2, Fc-KAAG1 truncated mutant ending at amino acid 35 of KAAG1 (human, not fully specified; biotinylated); assay: ELISA: biotinylated Fc-KAAG1 1-35 on streptavidin plate, OD450
T2 construct: also called KAAG1 truncated Fc-fusion (1-35); not shown: Fc part from vector pYD5
T2 chain: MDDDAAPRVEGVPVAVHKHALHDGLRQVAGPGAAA
Method: (§3) The expression and purification of human recombinant KAAG1 as an Fc fusion protein is found in PCT/CA2009/001586. To carry out the binding of Fc-KAAG1 to the antibody preparation, the Fc-KAAG1 was biotinylated with NHS-biotin (Pierce, Rockford, Ill.) and 10 ng/well was coated in a streptavidin 96-well plate for 1 h at room temperature. Purified chimeric 3A4 was added at increasing concentrations and incubated at room temperature for 30 minutes. Bound antibody was detected with HRP-conjugated human anti-kappa light chain antibody in the presence of TMB liquid substrate (Sigma-Aldrich Canada Ltd., Oakville, ON) and readings were conducted at 450 nm in microtiter plate reader. […] When the control unrelated IgG was incubated with the recombinant KAAG1, no binding activity was observed, even at the very highest concentration. […] The binding of 3A4 was compared to the binding of the chimeric 3D3 (described in Tremblay and Filion (2009)), that has different epitope specificity (see Example 2). The binding activity of 3A4 is very similar to 3D3 in this type of assay (see FIG. 1).
(§4) Based on the teachings of Tremblay and Filion (2009), it was known that other antibodies interacted with specific regions of recombinant KAAG1. Thus, anti-KAAG1 antibody 3C4, 3D3, and 3G10 interacted with the regions 1-35, 36-60, and 61-84 of KAAG1, respectively. […]

[4] = biological target: T3, KAAG1 on the surface of cancer cells (SKOV-3, TOV-21G ovarian cancer cells) (human, UniProt Q9UBP8 31-84); assay: flow cytometry on KAAG1-expressing cancer cells (told in the summary)
T3 construct: endogenous KAAG1 of human cancer cell lines; Also used for the Triton X-100 permeabilized SKOV-3 cells (named in the assay field); also called KAAG1 antigen; cell surface KAAG1
T3 sequence: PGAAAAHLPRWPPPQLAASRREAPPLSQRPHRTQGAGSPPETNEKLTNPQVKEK

[5] = biological target: T4, Fc-KAAG1 truncated mutant ending at amino acid 60 of KAAG1 (human, UniProt Q9UBP8 1-60, biotinylated); assay: ELISA: biotinylated Fc-KAAG1 1-60 on streptavidin plate, OD450
T4 construct: also called KAAG1 truncated Fc-fusion (1-60); not shown: Fc part from vector pYD5
T4 sequence: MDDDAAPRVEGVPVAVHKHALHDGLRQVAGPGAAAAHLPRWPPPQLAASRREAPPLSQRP
Method: as §3, §4

[6] = biological target: T1, recombinant human KAAG1 (purified …); assay: SPR (ProteOn XPR36), antibody captured on anti-human IgG Fc, KAAG1 as analyte, 25 C; parent LcHc (chimeric 3A4)
Method: as §2, with “Immediately after the activation, a 13 μg/mL solution of anti-human IgG Fc fragment specific in 10 mM NaOAc pH 4.5 was injected in the analyte direction at a flow rate of 25 μL/min until approximately 8000 resonance units (RUs) were immobilized. Remaining” for “Remaining”
as §1

[7] = biological target: T1, recombinant human KAAG1 (purified …); assay: surface plasmon resonance (told in the summary); summary statement; form of 3A4 and SPR set-up not stated
[8] = biological target: T1, recombinant human KAAG1 (purified …); assay: surface plasmon resonance (told in the summary)

- Fold diff. [1]: 13.2 fold
B1: humanized 3A4 antibody Lh1Hh2 (antibody, human IgG1, kappa, V domains shown)
VH: QIQLVQSGAEVKKPGASVKVSCKASGYTFTDDYMSWVRQAPGQGLEWMGDINPYNGDTNYNQKFKGRVTITADKSTSTAYMELSSLRSEDTAVYYCARDPGAMDYWGQGTLVTVSS
VL: DIVMTQTPLSLPVTPGEPASISCRSSQSLLHSNGNTYLEWYLQKPGQSPQLLIYTVSNRFSGVPDRFSGSGSGTDFTLKISRVEAEDVGVYYCFQGSHVPLTFGQGTKLEIKR
notes: human IgG1 kappa

- Fold diff. [1]: 9.3 fold
B2: humanized 3A4 antibody Lh1Hh4 (antibody, human IgG1, kappa, V domains shown)
VH: B1 VH with R38K, M48I, R67K, V68A, I70L, A72V
VL: B1 VL
notes: human IgG1 kappa

- Fold diff. [1]: 21.3 fold
B3: humanized 3A4 antibody Lh2Hh1 (antibody, human IgG1, kappa, V domains shown)
VH: B1 VH with I2V, K74T
VL: B1 VL with I2V, Q50K
notes: human IgG1 kappa

- Fold diff. [1]: 15.3 fold
B4: humanized 3A4 antibody Lh2Hh2 (antibody, human IgG1, kappa, V domains shown)
VH: B1 VH
VL: B1 VL with I2V, Q50K
notes: human IgG1 kappa

- Fold diff. [1]: 14.3 fold
B5: humanized 3A4 antibody Lh2Hh3 (antibody, human IgG1, kappa, V domains shown)
VH: B1 VH with M48I, V68A, I70L, A72V
VL: B1 VL with I2V, Q50K
notes: human IgG1 kappa

- Fold diff. [1]: 6.4 fold
B6: humanized 3A4 antibody Lh2Hh4 (antibody, human IgG1, kappa, V domains shown)
VH: B1 VH with R38K, M48I, R67K, V68A, I70L, A72V
VL: B1 VL with I2V, Q50K
notes: human IgG1 kappa; 10 mouse framework residues retained; also called H4L2

- Fold diff. [1]: 29.6 fold
- fold difference in binding affinity against the best variant H4L2 [2]: 4 fold
B7: humanized 3A4 antibody Lh1Hh1 (antibody, human IgG1, kappa, V domains shown)
VH: B1 VH with I2V, K74T
VL: B1 VL
notes: 100% humanized frameworks; human IgG1 kappa; also called H1L1

- Fold diff. [1]: 9.3 fold
B8: humanized 3A4 antibody Lh1Hh3 (antibody, human IgG1, kappa, V domains shown)
VH: B1 VH with M48I, V68A, I70L, A72V
VL: B1 VL
notes: human IgG1 kappa

- fold less antibody required compared to 3G10 [4]: ~10 fold
- Kd [6]: 0.057 nM
- Kd [7]: ~0.057 nM
B9: 3A4 chimeric anti-KAAG1 antibody (mouse-human chimeric IgG1) (antibody, V domains shown)
VH: QIQLVQSGPEMVKPGASVKMSCKASGYTFTDDYMSWVKQSHGKSLEWIGDINPYNGDTNYNQKFKGKAILTVDKSSSTAYMQLNSLTSEDSAVYYCARDPGAMDYWGQGTSVTVSS
VL: DVVMTQTPLSLAVSLGDQASISCRSSQSLLHSNGNTYLEWYLQKPGQSPKLLIHTVSNRFSGVPDRFSGSGSGTDFTLKISRVEAEDLGVYYCFQGSHVPLTFGAGTRLELKR
notes: also called chimeric 3A4; murine 3A4
- binding result [3]: no binding (tested: not given on the sheet)
- binding result [5]: no binding (tested: not given on the sheet)

- Kd [8]: > 200 nM
- fold lower affinity than 3A4 [8]: 20 fold
B10: 3G10 anti-KAAG1 antibody (antibody, V domains shown)
VH: EIQLQQSGPELVKPGASVKISCKASGYTFTDNYMNWVKQSHGKSLEWIGDINPYYGTTTYNQKFKGKATLTVDKSSRTAYMELRGLTSEDSAVYYCARDDWFDYWGQGTLVTVSA
VL: DVLMTQTPRSLSVSLGDQASISCRSSQSLLHSNGNTYLEWYLQKPGQPPKVLIYKVSNRFSGVPDRFSGSGSGTDFTLKISGVEAEDLGVYYCFQGSHVPLTFGAGTKLELK

- Kd [8]: > 200 nM
- fold lower affinity than 3A4 [8]: 20 fold
B11: 3D3 anti-KAAG1 antibody (chimeric 3D3) (antibody, V domains shown)
VH: EVQLQQSVAELVRPGASVTLSCKASGYIFTDYEIHWVKQTPVHGLEWIGVIDPETGNTAFNQKFKGKATLTADISSSTAYMELSSLTSEDSAVYYCMGYSDYWGQGTTLTVSS
VL: DIVMTQSPSSLAVSIGQKVTMNCKSSQSLLNSNFQKNFLAWYQQKPGQSPKLLIYFASTRESSIPDRFIGSGSGTDFTLTISSVQAEDLADYFCQQHYSTPLTFGAGTKLELK
